Data on five molecules can be found in US6759384 (AVENTIS PHARMACEUTICALS, dated 2004).

For test [1], the target named is T1, human factor Xa (Enzyme Research Laboratories, Inc.) (human, UniProt P00742 41-179; P00742 235-488, limits assumed). The experiment in a line: chromogenic FXa inhibition. In a few lines: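 Human FXa (0.5 nM) preincubated 10 min with inhibitor in TBS-P (pH 7.8, 200 mM NaCl, PEG-8000), then S-2765 added (140 μM). Initial hydrolysis rate read at 405 nm, 25° C.; IC50 by linear regression of relative rate vs log concentration.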
T1 sequence (P00742 41-179 limits assumed, chain 1 of 2): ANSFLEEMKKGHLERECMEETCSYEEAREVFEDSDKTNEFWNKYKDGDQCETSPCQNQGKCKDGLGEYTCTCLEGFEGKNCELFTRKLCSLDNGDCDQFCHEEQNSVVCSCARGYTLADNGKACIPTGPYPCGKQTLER
T1 sequence (P00742 235-488 limits assumed, chain 2 of 2): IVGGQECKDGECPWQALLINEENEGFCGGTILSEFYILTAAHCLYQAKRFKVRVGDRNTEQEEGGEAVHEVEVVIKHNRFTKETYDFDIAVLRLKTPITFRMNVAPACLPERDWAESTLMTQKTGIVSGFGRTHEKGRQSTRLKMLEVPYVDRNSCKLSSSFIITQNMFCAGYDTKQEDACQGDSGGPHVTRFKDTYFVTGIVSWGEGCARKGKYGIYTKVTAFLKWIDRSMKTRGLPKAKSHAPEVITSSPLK

Test [2] deals with T1, human factor Xa (Enzyme Research …). Kind of test: chromogenic enzyme inhibition, IC50 corrected for substrate.
For test [3] the target is unchanged. Kind of test: chromogenic FXa inhibition. The procedure: (§1) TBS-P buffer (50 mM Tris-Cl, pH 7.8, 200 mM NaCl, 0.05% (w/v) PEG-8000, 0.02% (w/v) NaN_3) was used for this assay. The IC$50$ was determined by combining in appropriate wells of a Costar half-area microtiter plate 25 μl human factor Xa (Enzyme Research Laboratories, Inc.; South Bend Ind.) in TBS-P; 40 μl 10% (v/v) DMSO in TBS-P (uninhibited control) or various concentrations of a peptide to be tested diluted in 10% (v/v) DMSO in TBS-P; and substrate S-2765 (Nα-benzyloxycarbonyl-D-Arg-Gly-L-Arg-p-nitroanilide; Kabi Pharmacia, Inc.; Franklin Ohio) in TBS-P.
(§2) The assays were performed by pre-incubating the peptide inhibitor plus enzyme for 10 min, then the assay was initiated by adding substrate to obtain a final volume of 100 μl. The initial velocity of chromogenic substrate hydrolysis was measured by the change in absorbance at 405 nm using a Bio-tek Instruments kinetic plate reader (Ceres UV900HDi) at 25° C. during the linear portion of the time course (usually 1–5 min after addition of substrate). The concentration of inhibitor that caused a 50% decrease in the rate of substrate hydrolysis was predicted by linear regression after plotting the relative rates of hydrolysis (compared to the uninhibited control) versus the log of the peptide concentration. The enzyme concentration was 0.5 nM and substrate concentration was 140 μM.
This is another data set of the same source.

Test [4] shares this target. Kind of test: cell-based or functional assay.
Test [5] has the same target. The experiment in a line: chromogenic FXa inhibition. The procedure:
as §1, §2
The source holds these as a separate data set.

Test [6] has as its target human thrombin (Enzyme Research Laboratories, Inc.) (human, UniProt P00734 328-622). Kind of test: chromogenic enzyme inhibition, IC50 corrected for substrate.

Starred links: 1 amine or outer side, 2 acyl side, 3 side chain; linkers in the order of their positions; H or OH if unused. Non-standard residues stand in square brackets, D forms with d. *: point of attachment. (iBu)Y = N-alpha-isobutyl-tyrosine, CC(C)CN([C@@H](Cc1ccc(O[*:3])cc1)C(=O)[*:2])[*:1]; Chg = N[C@H](C(=O)O)C1CCCCC1; Tfa = O=C(C(F)(F)F)*

In general, Ki refers to a measure of affinity in units of concentration, obtained from inhibition or displacement.

As to YIRLP (D-Tyr at 1; C-term NH2, also called (D)-Tyr-Ile-Arg-Leu-Pro-NH2) [y-I-R-L-P-NH2], the Ki in test [1] is less than 100000 nM; in test [2], 200 nM.

B1: Ac-Y-Chg-R-L-P-NH2 (peptide)
peptide: Ac-Y[Chg]RLP-NH2
SMILES: CC(=O)N[C@@H](Cc1ccc(O)cc1)C(=O)N[C@H](C(=O)N[C@@H](CCCNC(=N)N)C(=O)N[C@@H](CC(C)C)C(=O)N1CCC[C@H]1C(N)=O)C1CCCCC1
notes: also called Ac-Tyr-Chg-Arg-Leu-Pro-NH2
Regarding B1, the Ki in test [1] and in test [3] was less than 100000 nM throughout. Besides, in test [4], the “EC50 (concentration giving 50% inhibition of coagulation), in vitro dilute prothrombin time assay, pooled human plasma” value worked out at 225 nM.

B2: Tfa-(iBu)Y-Chg-R-L-P-NH2 (peptide)
peptide: Tfa-[(iBu)Y][Chg]RLP-NH2
notes: also called Tfa-(iBu)Tyr-Chg-Arg-Leu-Pro-NH2
B2 yielded a Ki in test [1] of less than 100000 nM. Moreover, the “EC50 (concentration giving 50% inhibition of coagulation), in vitro dilute prothrombin time assay, pooled human plasma” value in test [4] was found to be 300 nM.
Regarding XIRLP (N-(iBu) on Y1; C-term NH2) [(iBu)Y-I-R-L-P-NH2], the Ki was 2600 nM in test [5] and less than 100000 nM in test [1].
On to XIRLP (N-term Ac; N-(iBu) on Y1; C-term NH2) [Ac-(iBu)Y-I-R-L-P-NH2], for which the Ki is less than 100000 nM in test [1], 25000 nM in test [6] and 40 nM in test [2].
